{"source": "patent US9084831B2", "about": "“Molecular probe precursor for imaging of pancreatic islet, and use thereof” (Kyoto University, priority 2008, dated 2015)", "origin": "cited, not measured here", "conditions": "mouse, in vivo, iv; cited from earlier work"}
{"substance": "^125I labeled exendin(9-39): exendin(9-39), a GLP-1R ligand, 125I-labeled by Bolton-Hunter labeling (PerkinElmer NEX 335)", "values": [{"measurement": "accumulation and binding among organs", "value": "accumulates selectively and specifically in the pancreas among organs"}]}
